Legend:
[1] = molecular target: T1, human CD19 on Ramos cells (B-cell lymphoma) (human, UniProt P15391 20-556); test: flow cytometry of Ramos cells incubated with M12 supernatant, detected with PE anti-mouse I-A/I-E
T1 construct: whole, on cells; also called hCD19
T1 sequence (looked up): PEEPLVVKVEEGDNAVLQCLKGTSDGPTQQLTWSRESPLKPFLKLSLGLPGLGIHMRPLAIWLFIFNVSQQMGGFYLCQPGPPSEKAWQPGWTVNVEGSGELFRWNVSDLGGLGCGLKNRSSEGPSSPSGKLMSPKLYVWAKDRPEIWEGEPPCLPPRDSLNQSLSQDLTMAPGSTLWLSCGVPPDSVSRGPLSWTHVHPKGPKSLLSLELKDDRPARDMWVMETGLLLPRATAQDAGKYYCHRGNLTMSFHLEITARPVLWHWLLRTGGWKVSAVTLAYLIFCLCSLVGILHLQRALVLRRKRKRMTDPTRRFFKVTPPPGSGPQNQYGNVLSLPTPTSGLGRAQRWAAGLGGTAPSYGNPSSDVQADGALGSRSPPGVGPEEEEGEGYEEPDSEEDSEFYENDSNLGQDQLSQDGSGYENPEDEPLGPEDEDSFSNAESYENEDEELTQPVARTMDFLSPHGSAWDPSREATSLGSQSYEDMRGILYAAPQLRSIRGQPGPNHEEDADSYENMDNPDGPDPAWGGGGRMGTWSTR
Description: Ramos cells were incubated with culture media (negative control) or supernatant from M12 cells expressing BMiMS, then stained with fluorophore conjugated antibodies against the indicated immune molecules and analyzed by flow cytometry.
M12 cells were cultured to confluency (1-2×10⁶ cells/mL) in complete RPMI (5% FCS) and the supernatant was harvested for analysis as described above. Ramos cells were harvested, washed, and 1×10⁶ were incubated with media (negative control) or 0.250 mL of concentrated (50 mL down to 0.250 mL in Amicon Ultra 15 10 kDa (Millipore)) M12 cell culture supernatant at 4° C. for 1 hour. After washing, cells were stained with PE conjugated anti-mouse I-A/I-E (clone M5/14. 15.2, eBiosciences), PE conjugated anti-mCD80 (clone 16-10A1, BioLegend), anti-mCD86 (clone GL-1, BioLegend) or anti-mlCAM-1 (clone YN1/1.7.4, eBioscience) and analyzed by flow cytometry.

[2] = molecular target: T2, recombinant huCD19 (BioLegend) (human, UniProt P15391 20-291, limits assumed); test: plate coated with 4 ug/ml recombinant huCD19, BMiMS supernatant, washed; retention read through IL-2 of 5c.c7 T cells
T2 construct: Bought reagent; also called rhuCD19
T2 sequence (looked up): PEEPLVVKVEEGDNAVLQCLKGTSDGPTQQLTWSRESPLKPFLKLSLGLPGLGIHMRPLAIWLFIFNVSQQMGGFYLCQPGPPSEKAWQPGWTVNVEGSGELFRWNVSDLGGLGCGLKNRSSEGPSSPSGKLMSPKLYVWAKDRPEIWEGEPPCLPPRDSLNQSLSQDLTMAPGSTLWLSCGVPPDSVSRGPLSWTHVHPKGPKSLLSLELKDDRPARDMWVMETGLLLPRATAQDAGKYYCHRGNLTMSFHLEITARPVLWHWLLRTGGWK
Description: An experiment was designed to determine whether BMiMS can bind huCD19 and stimulate CD4+ T cells. See FIG. 9A. pMHCII-based BMiMS were made with the moth cytochrome c […] peptide (MCC) tethered with a flexible linker to I-E^k (MCC:I-E^k) which is recognized by the 5c.c7 TCR. For a pilot experiment, the wells of a 96-well plate were coated with 4 μg/ml recombinant huCD19 (BioLegend). The wells were washed and then incubated with concentrated supernatant from cells expressing pMHCII-BMiMS, CD80-BMiMS, or both. Naive 5c.c7+CD4+ T cells from 5c.c7 TCR transgenic mice (RagKO) were then incubated for 18 hr in the wells prior to harvesting of the supernatant for measurement of IL-2 by ELISA. No IL-2 was produced by cells cultured in wells with huCD19 only or the huCD19+CD80 BMiMS. IL-2 was produced by T cells cultured in wells with huCD19+pMHCII-BMiMS, and higher levels of IL-2 were produced by T cells cultured in wells coated with huCD19+pMHCII-BMiMS+CD80-BMiMS.

B1: mMHCII-Anti-hCD19 BMiMS (MCC:I-E^k fused to anti-hCD19 AltIg Fv of mAb B43, opened C-C' loop) (other)
MHC II alpha: CIKEEHTIIQAEFYLLPDKRGEFMFDFDGDEIFHVDIEKSETIWRLEEFAKFASFEAQGALANIAVDKANLDVMKERSNNTPDANVAPEVTVLSRSPVNLGEPNILICFIDKFSPPVVNVTWLRNGRPVTEGVSETVFLPRDDHLFRKFHYLTFLPSTDDFYDCEVDHWGLEEPLRKHWEFEEKTLLPETKESRGGLEVLFQGPEFGGSTTAPSAQLEKELQALEKENAQLEWELQALEKELAQAAAGQPPKLLIYDASNLVSGIPPRFSGSGSGTDFTLNIHPVEKVDAATYHCQQSTEDPWTFGGGTKLEIKSPGSGGGGSGGGGSGGGGSSGELVLTQSPASLAVSLGQRATISCKASQSVDYDGDSYLNWYQQIGGGGSHHHHHH
MHC II beta: CADPSGSANERADLIAYLKQATKEFRSGGGGSLVPRGSGGGGSVDRPWFLEYCKSECHFYNGTQRVRLLVRYFYNLEENLRFDSDVGEFRAVTELGRPDAENWNSQPEFLEQKRAEVDTVCRHNYEIFDNFLVPRRVEPTVTVYPTKTQPLEHHNLLVCSVSDFYPGNIEVRWFRNGKEEKTGIVSTGLVRNGDWTFQTLVMLETVPQSGEVYTCQVEHPSLTDPVTVEWKAQSTSAQNKSRGGLEVLFQGPEFGGSTTAPSAQLKKKLQALKKKNAQLKWKLQALKKKLAQAAAGQGLEWIGQIWPGDGDTNYNGKFKGKATLTADESSSTAYMQLSSLRSEDSAVYSCARRETTTVGRYYYAMDYWGQGTTVTSPGSGGGGSGGGGSGGGGSSGQVQLLESGAELVRPGSSVKISCKASGYAFSSYWMNWVKQRGGGGSHHHHHH
notes: Heterodimer secreted by M12 cells, used as concentrated culture supernatant; also called pMHCII-BMiMS; pMHCII-based BMiMS
binding result [1]: binds
binding result [2]: binds

— patent US20230272071A1 (ARIZONA BOARD OF REGENTS ON BEHALF OF THE UNIVERSITY OF …, published 2023)
